# Source: US20210230266A1
# Read-outs that look alike come from different tables or passages of the source.
# Key:
# Assay in all cases: cell-based or functional assay
# Human IL-11 (human) = Human IL-11 (human) (UniProt P20809)
# Mouse IL-11 (mouse) [1] = biological target: Mouse IL-11 (mouse) (UniProt P47873)
# [2] = biological target: IL-11:IL-11Rα fusion protein (hyper IL-11) (human)
# Mouse IL-11 (mouse) [3] = biological target: Mouse IL-11 (mouse) (UniProt P47873); remark: listed apart in the source
# Chain of Mouse IL-11 (mouse) (P47873 22-199 limits assumed): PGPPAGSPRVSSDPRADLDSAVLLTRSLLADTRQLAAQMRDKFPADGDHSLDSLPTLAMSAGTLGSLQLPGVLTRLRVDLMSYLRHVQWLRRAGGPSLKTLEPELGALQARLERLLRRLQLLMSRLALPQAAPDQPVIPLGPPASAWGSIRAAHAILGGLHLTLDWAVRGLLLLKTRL
# Chain of Human IL-11 (human) (P20809 22-199 limits assumed): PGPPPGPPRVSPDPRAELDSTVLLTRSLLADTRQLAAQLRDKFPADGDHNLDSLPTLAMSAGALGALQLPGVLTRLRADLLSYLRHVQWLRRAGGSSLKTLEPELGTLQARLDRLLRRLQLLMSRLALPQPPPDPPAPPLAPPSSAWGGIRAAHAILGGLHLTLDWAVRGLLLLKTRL
# Chain of IL-11:IL-11Rα fusion protein (hyper IL-11) (human) (chain, as listed by the source limits assumed): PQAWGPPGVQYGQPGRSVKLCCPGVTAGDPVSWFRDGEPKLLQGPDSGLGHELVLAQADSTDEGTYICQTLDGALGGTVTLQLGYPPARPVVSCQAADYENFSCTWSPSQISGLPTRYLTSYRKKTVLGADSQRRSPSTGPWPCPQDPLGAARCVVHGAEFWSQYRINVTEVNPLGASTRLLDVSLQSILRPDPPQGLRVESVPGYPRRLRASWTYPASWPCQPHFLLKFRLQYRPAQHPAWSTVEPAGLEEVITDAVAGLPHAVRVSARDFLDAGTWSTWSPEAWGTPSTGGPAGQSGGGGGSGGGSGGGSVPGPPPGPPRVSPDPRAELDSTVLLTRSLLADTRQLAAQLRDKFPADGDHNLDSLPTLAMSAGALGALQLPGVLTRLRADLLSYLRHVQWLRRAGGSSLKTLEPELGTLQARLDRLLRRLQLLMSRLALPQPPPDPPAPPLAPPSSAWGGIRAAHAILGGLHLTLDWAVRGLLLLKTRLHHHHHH
substance,measurement,setting,value
"Monoclonal mouse anti-human IL-11 antibody, IgG2A, Clone #22626, Catalog No. MAB218 (R&D Systems)","fold of αSMA-positive cells relative to unstimulated cells, human atrial fibroblasts + TGFβ1",Human IL-11 (human),0.89 times
same,"fold of αSMA-positive cells relative to unstimulated cells, human atrial fibroblasts + TGFβ1 (fold of unstimulated)",Human IL-11 (human),0.99
same,"percentage of activated (αSMA-positive) fibroblasts, human atrial fibroblasts + TGFβ1",Human IL-11 (human),28.3%
same,"fold of αSMA-positive cells relative to unstimulated cells, mouse atrial fibroblasts + TGFβ1 (fold of unstimulated)",Mouse IL-11 (mouse) [1],1.24
same,"percentage of activated (αSMA-positive) fibroblasts, mouse atrial fibroblasts + TGFβ1",Mouse IL-11 (mouse) [1],39.4%
same,"fold of αSMA-positive cells relative to unstimulated cells, human atrial fibroblasts + hyper IL-11 (fold of unstimulated)",[2],1.28
same,"percentage of activated (αSMA-positive) fibroblasts, human atrial fibroblasts + hyper IL-11",[2],33.8%
same,"fold of αSMA-positive cells relative to unstimulated cells, mouse atrial fibroblasts + TGFβ1 (fold of unstimulated)",Mouse IL-11 (mouse) [3],1.44
same,"percentage of activated (αSMA-positive) fibroblasts, mouse atrial fibroblasts + TGFβ1",Mouse IL-11 (mouse) [3],43%
